Experimental data from PMC5986199.

Biological target: α-NAC subunit of C. elegans NAC (C. elegans)
Test: cross-linking; BS3 (d0/d4) at 20- or 50-fold molar excess, 20 uM NAC alone or + 20 uM substrate, 10 mM sodium phosphate pH 7.0, room temperature 1 h; SDS-PAGE, in-gel tryptic digest, LC-MS/MS

- stoichiometry N: 1
B1: β-NAC subunit of C. elegans NAC (natural protein)
chain: MDSKAIAERIKKLQAQQEHVRIGGKGTPRRKKKVIHKTAAADDKKLQSNLKKLSVTNIPGIEEVNMIKDDGTVIHFNNPKVQTSVPANTFSVTGSADNKQITEMLPGILNQLGPESLTHLKKLANNVTKLGPDGKGEDEDVPELVGDFDAASKNETKADEQ
